IntAct's records for PubMed 19369211

B1: Partner and localizer of BRCA2 (Homo sapiens), Q86YC2 (parent)
chain: MDEPPGKPLSCEEKEKLKEKLAFLKREYSKTLARLQRAQRAEKIKHSIKKTVEEQDCLSQQDLSPQLKHSEPKNKICVYDKLHIKTHLDEETGEKTSITLDVGPESFNPGDGPGGLPIQRTDDTQEHFPHRVSDPSGEQKQKLPSRRKKQQKRTFISQERDCVFGTDSLRLSGKRLKEQEEISSKNPARSPVTEIRTHLLSLKSELPDSPEPVTEINEDSVLIPPTAQPEKGVDTFLRRPNFTRATTVPLQTLSDSGSSQHLEHIPPKGSSELTTHDLKNIRFTSPVSLEAQGKKMTVSTDNLLVNKAISKSGQLPTSSNLEANISCSLNELTYNNLPANENQNLKEQNQTEKSLKSPSDTLDGRNENLQESEILSQPKSLSLEATSPLSAEKHSCTVPEGLLFPAEYYVRTTRSMSNCQRKVAVEAVIQSHLDVKKKGFKNKNKDASKNLNLSNEETDQSEIRMSGTCTGQPSSRTSQKLLSLTKVSSPAGPTEDNDLSRKAVAQAPGRRYTGKRKSACTPASDHCEPLLPTSSLSIVNRSKEEVTSHKYQHEKLFIQVKGKKSRHQKEDSLSWSNSAYLSLDDDAFTAPFHRDGMLSLKQLLSFLSITDFQLPDEDFGPLKLEKVKSCSEKPVEPFESKMFGERHLKEGSCIFPEELSPKRMDTEMEDLEEDLIVLPGKSHPKRPNSQSQHTKTGLSSSILLYTPLNTVAPDDNDRPTTDMCSPAFPILGTTPAFGPQGSYEKASTEVAGRTCCTPQLAHLKDSVCLASDTKQFDSSGSPAKPHTTLQVSGRQGQPTCDCDSVPPGTPPPIESFTFKENQLCRNTCQELHKHSVEQTETAELPASDSINPGNLQLVSELKNPSGSCSVDVSAMFWERAGCKEPCIITACEDVVSLWKALDAWQWEKLYTWHFAEVPVLQIVPVPDVYNLVCVALGNLEIREIRALFCSSDDESEKQVLLKSGNIKAVLGLTKRRLVSSSGTLSDQQVEVMTFAEDGGGKENQFLMPPEETILTFAEVQGMQEALLGTTIMNNIVIWNLKTGQLLKKMHIDDSYQASVCHKAYSEMGLLFIVLSHPCAKESESLRSPVFQLIVINPKTTLSVGVMLYCLPPGQAGRFLEGDVKDHCAAAILTSGTIAIWDLLLGQCTALLPPVSDQHWSFVKWSGTDSHLLAGQKDGNIFVYHYS

Variants of: B1
Conditions: with brca1_human BRCA1, P38398
Sequence of brca1_human BRCA1, P38398 (P38398 whole entry, looked up): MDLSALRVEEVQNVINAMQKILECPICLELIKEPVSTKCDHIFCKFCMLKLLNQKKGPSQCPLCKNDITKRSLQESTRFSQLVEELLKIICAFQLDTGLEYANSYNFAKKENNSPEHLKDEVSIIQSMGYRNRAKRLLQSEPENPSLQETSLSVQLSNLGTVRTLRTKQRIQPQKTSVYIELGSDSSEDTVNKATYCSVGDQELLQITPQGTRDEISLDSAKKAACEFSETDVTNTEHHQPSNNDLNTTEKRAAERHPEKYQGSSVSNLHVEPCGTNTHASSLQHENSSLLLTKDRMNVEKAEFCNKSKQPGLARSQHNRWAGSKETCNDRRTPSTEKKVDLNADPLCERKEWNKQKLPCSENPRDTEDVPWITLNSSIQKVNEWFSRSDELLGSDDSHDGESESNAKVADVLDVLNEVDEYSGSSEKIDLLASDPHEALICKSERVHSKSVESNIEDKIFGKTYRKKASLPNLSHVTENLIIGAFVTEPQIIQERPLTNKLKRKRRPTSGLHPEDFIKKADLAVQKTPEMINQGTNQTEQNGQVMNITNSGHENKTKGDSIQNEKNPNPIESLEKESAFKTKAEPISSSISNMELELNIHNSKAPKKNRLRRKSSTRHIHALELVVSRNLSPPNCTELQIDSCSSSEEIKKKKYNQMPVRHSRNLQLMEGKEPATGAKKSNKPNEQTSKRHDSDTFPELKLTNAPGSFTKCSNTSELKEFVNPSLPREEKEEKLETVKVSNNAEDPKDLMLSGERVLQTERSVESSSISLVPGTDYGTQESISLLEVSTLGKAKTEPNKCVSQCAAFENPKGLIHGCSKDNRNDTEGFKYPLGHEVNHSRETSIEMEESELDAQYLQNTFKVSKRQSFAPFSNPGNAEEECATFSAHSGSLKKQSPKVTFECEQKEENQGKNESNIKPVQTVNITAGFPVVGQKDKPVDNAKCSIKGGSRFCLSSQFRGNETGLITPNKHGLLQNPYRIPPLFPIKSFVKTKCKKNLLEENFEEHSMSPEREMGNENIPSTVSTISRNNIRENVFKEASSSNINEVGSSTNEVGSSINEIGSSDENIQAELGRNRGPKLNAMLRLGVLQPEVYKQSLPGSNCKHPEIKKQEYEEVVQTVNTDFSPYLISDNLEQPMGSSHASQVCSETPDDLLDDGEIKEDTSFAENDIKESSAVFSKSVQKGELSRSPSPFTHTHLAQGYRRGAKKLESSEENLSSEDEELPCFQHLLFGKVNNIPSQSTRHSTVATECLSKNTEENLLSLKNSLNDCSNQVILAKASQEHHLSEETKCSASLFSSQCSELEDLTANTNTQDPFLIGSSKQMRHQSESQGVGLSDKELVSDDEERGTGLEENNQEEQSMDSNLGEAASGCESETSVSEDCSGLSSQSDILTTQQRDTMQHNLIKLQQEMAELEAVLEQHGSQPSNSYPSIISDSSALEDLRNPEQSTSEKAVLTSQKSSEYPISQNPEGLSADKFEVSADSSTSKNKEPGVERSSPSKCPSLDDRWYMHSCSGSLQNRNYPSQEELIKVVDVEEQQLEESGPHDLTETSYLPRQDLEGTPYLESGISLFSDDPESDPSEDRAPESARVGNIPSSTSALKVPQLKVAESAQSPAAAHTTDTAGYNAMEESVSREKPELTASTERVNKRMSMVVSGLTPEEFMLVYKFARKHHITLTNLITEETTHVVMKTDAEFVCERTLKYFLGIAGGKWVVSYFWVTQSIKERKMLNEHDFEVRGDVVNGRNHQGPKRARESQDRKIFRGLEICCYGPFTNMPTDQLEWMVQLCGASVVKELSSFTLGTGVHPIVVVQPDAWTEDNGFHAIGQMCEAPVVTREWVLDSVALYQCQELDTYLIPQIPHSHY

effect of a mutation on the interaction	Variant
disrupting interaction	Y28A
disrupting interaction	L21A
